Target: Cyclin B1 (human (endogenous in 293T and HFF)), P14635
Test: co-IP
Settings: remark: other sources report otherwise

Sequence of Cyclin B1 (human (endogenous in 293T and HFF)), P14635 (P14635 whole entry): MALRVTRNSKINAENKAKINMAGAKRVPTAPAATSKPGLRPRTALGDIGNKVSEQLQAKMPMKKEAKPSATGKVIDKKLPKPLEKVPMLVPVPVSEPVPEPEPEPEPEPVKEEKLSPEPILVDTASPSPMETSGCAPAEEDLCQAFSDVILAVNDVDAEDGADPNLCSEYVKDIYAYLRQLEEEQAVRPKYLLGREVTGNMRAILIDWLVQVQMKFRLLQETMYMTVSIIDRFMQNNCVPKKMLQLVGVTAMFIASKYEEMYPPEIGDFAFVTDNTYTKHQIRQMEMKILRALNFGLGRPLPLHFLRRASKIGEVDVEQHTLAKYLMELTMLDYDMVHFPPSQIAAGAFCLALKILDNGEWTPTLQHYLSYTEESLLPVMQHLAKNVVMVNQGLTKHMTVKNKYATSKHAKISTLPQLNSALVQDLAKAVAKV

B1: HCMV protein kinase pUL97, Flag-tagged (pUL97-Flag), P16788 1-707 (natural protein)
chain: MSSALRSRARSASLGTTTQGWDPPPLRRPSRARRRQWMREAAQAAAQAAVQAAQAAAAQVAQAHVDENEVVDLMADEAGGGVTTLTTLSSVSTTTVLGHATFSACVRSDVMRDGEKEDAASDKENLRRPVVPSTSSRGSAASGDGYHGLRCRETSAMWSFEYDRDGDVTSVRRALFTGGSDPSDSVSGVRGGRKRPLRPPLVSLARTPLCRRRVGGVDAVLEENDVELRAESQDSAVASGPGRIPQPLSGSSGEESATAVEADSTSHDDVHCTCSNDQIITTSIRGLTCDPRMFLRLTHPELCELSISYLLVYVPKEDDFCHKICYAVDMSDESYRLGQGSFGEVWPLDRYRVVKVARKHSETVLTVWMSGLIRTRAAGEQQQPPSLVGTGVHRGLLTATGCCLLHNVTVHRRFHTDMFHHDQWKLACIDSYRRAFCTLADAIKFLNHQCRVCHFDITPMNVLIDVNPHNPSEIVRAALCDYSLSEPYPDYNERCVAVFQETGTARRIPNCSHRLRECYHPAFRPMPLQKLLICDPHARFPVAGLRRYCMSELSALGNVLGFCLMRLLDRRGLDEVRMGTEALLFKHAGAACRALENGKLTHCSDACLLILAAQMSYGACLLGEHGAALVSHTLRFVEAKMSSCRVRAFRRFYHECSQTMLHEYVRKNVERLLATSDGLYLYNAFRRTTSIICEEDLDGDCRQLFPE
  pUL97 co-IP Western blot signal relative to cyclin B1: 100%

B2: pUL97 stably expressed in transduced HFFs, P16788 1-707 (natural protein)
chain: MSSALRSRARSASLGTTTQGWDPPPLRRPSRARRRQWMREAAQAAAQAAVQAAQAAAAQVAQAHVDENEVVDLMADEAGGGVTTLTTLSSVSTTTVLGHATFSACVRSDVMRDGEKEDAASDKENLRRPVVPSTSSRGSAASGDGYHGLRCRETSAMWSFEYDRDGDVTSVRRALFTGGSDPSDSVSGVRGGRKRPLRPPLVSLARTPLCRRRVGGVDAVLEENDVELRAESQDSAVASGPGRIPQPLSGSSGEESATAVEADSTSHDDVHCTCSNDQIITTSIRGLTCDPRMFLRLTHPELCELSISYLLVYVPKEDDFCHKICYAVDMSDESYRLGQGSFGEVWPLDRYRVVKVARKHSETVLTVWMSGLIRTRAAGEQQQPPSLVGTGVHRGLLTATGCCLLHNVTVHRRFHTDMFHHDQWKLACIDSYRRAFCTLADAIKFLNHQCRVCHFDITPMNVLIDVNPHNPSEIVRAALCDYSLSEPYPDYNERCVAVFQETGTARRIPNCSHRLRECYHPAFRPMPLQKLLICDPHARFPVAGLRRYCMSELSALGNVLGFCLMRLLDRRGLDEVRMGTEALLFKHAGAACRALENGKLTHCSDACLLILAAQMSYGACLLGEHGAALVSHTLRFVEAKMSSCRVRAFRRFYHECSQTMLHEYVRKNVERLLATSDGLYLYNAFRRTTSIICEEDLDGDCRQLFPE
  pUL97 co-IP Western blot signal relative to cyclin B1: 100%

— publication PMC4997581
